The values that follow come from publication PMC4695088, “An Oomycete CRN Effector Reprograms Expression of Plant HSP Genes by Targeting their Promoters”.

The target in series [1] is T1, MBP:PsCRN108 (Phytophthora sojae, UniProt A0A0M5K865 18-820).
T1 sequence: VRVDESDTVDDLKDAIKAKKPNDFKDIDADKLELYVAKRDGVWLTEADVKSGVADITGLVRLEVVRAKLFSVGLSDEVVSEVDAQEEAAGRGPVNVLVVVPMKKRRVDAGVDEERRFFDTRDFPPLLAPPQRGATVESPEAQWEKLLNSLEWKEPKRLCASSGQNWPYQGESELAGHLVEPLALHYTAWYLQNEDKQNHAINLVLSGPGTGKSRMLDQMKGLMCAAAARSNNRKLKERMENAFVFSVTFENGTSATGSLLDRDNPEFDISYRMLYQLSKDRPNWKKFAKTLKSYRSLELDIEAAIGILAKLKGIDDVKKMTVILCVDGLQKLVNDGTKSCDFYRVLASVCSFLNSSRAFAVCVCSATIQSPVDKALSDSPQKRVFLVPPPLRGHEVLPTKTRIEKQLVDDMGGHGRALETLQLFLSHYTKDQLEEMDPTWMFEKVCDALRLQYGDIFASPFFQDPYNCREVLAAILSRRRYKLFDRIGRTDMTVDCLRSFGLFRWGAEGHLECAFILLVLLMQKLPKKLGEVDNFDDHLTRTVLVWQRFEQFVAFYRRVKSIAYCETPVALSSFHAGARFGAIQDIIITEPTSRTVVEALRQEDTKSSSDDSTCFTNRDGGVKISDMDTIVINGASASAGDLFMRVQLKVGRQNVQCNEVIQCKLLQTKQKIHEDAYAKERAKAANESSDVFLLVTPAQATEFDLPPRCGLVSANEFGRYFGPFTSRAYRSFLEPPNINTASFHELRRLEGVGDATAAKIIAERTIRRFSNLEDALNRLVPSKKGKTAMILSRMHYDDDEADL
Description: pull-down; 25 mM HEPES pH 8, 10 mM MgCl2, 20 mM KCl, 0.1 mM EDTA, 1 mM DTT, 100 ng poly(dI-dC), 5% glycerol, 25 C (EMSA 3 h; pull-down in the same buffer, 1 h + 1 h). To be noted: protein: recombinant; tags: N-terminal His, MBP (pHMTc); label: 5' biotin; blunt. Background: In EMSA bound probe runs differently from free probe, usually more slowly.

In the next series the target is T2, GST:PsCRN108 (Phytophthora sojae, UniProt A0A0M5K865 18-820).
T2 sequence: T1 sequence
Described as above. Particulars: protein: recombinant; tags: N-terminal GST (pGEX-4T-2); label: 5' biotin; blunt.

Series [2] concerns the target T3, MBP:AtHsfA1a (Arabidopsis thaliana, UniProt P41151 1-495). Described as above. To be noted: protein: recombinant; tags: N-terminal His, MBP (pHMTc); chain copies: 3; label: 5' biotin; blunt.
Series [3] addresses T3, MBP:AtHsfA1a. Description: EMSA; up to 2 uM protein, 5 nM DNA; complex in wells; competed by unlabeled HSE; 25 mM HEPES pH 8, 10 mM MgCl2, 20 mM KCl, 0.1 mM EDTA, 1 mM DTT, 100 ng poly(dI-dC), 5% glycerol, 25 C (EMSA 3 h; pull-down in the same buffer, 1 h + 1 h). Particulars: protein: recombinant; tags: N-terminal His, MBP (pHMTc); chain copies: 3; label: 5' Alex660 (EMSA); blunt.

Series [4] concerns the target T1, MBP:PsCRN108. Description: EMSA; up to 6 uM protein, 5 nM DNA; weaker than AtHsfA1a; complex in wells; competed by unlabeled HSE; 25 mM HEPES pH 8, 10 mM MgCl2, 20 mM KCl, 0.1 mM EDTA, 1 mM DTT, 100 ng poly(dI-dC), 5% glycerol, 25 C (EMSA 3 h; pull-down in the same buffer, 1 h + 1 h). To be noted: protein: recombinant; tags: N-terminal His, MBP (pHMTc); label: 5' Alex660 (EMSA); blunt.

T3 sequence (P41151 whole entry): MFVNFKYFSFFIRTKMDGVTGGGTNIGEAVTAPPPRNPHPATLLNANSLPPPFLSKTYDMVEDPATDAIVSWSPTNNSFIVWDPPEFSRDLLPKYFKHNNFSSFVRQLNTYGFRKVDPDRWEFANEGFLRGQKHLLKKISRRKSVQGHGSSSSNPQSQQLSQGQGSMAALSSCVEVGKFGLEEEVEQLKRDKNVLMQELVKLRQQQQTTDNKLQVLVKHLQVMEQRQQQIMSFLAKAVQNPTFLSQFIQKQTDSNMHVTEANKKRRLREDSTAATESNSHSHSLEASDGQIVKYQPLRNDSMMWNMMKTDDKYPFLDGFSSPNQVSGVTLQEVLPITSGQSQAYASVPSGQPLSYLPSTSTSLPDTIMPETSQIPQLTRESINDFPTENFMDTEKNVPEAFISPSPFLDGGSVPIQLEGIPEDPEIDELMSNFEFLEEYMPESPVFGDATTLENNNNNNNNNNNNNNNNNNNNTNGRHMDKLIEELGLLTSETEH

B1: biotinylated 19 bp HSE (dsDNA)
DNA 1: CCAGAAGCTTCCAGAAGCC
DNA 2: GGCTTCTGGAAGCTTCTGG
Turning to B1, the binding result with MBP:PsCRN108 [1], with GST:PsCRN108 and with MBP:AtHsfA1a [2] was “binds” each time.

B2: 19 bp HSE (dsDNA)
DNA 1: CCAGAAGCTTCCAGAAGCC
DNA 2: GGCTTCTGGAAGCTTCTGG
Take B2: the binding result with MBP:AtHsfA1a [3] and in the series with MBP:PsCRN108 [4] was “binds” in each case.
